Measured values from patent US20240084003A1 (SIMCERE ZAIMING PHARMACEUTICAL, published 2024).
Values belong to the binder of their own block, whether it stands above or below them.

Assays:
[1] = target: T1, monkey CD22 protein (ACROBiosystems, catalog number SI2-R52Ha) (monkey, UniProt F6W485 20-688); assay: ELISA, coated monkey CD22 protein, antibody 10 nM
T1 construct: commercial protein; also called monkey CD22-ECD; monkey CD22-ECD-His
T1 sequence: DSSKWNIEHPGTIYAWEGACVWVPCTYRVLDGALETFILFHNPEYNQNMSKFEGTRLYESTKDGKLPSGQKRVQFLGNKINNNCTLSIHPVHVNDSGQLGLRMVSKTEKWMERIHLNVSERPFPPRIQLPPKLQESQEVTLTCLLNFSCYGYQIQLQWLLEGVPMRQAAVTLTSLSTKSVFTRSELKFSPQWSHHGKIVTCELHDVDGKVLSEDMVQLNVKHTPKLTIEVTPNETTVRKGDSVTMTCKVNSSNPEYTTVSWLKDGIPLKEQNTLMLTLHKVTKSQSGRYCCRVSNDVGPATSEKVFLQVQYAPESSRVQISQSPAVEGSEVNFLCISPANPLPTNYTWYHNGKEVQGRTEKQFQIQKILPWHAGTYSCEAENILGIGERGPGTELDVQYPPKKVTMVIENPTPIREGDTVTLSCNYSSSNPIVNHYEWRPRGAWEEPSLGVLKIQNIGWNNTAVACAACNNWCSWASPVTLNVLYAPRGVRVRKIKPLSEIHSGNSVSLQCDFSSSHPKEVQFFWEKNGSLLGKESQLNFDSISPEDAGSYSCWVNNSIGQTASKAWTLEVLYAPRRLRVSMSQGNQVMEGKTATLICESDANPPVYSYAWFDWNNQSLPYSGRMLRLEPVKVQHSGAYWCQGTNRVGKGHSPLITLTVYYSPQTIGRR
Procedure: (§1) In order to detect the binding activity of CD22 human-murine chimeric antibodies to CD22 protein, the purified human CD22-ECD-His protein obtained in Example 2 was diluted with PBS to a final concentration of 2 μg/mL, and then added to 96-well ELISA plate at 100 μl/well. The plate was sealed with plastic film and incubated overnight at 4° C., the plate was washed 2 times with PBS the next day, and then a blocking solution [PBS+2% (w/w) BSA] was added for blocking at room temperature for 2 hours. […] After incubation at 37° C. for 2 hours, the plate was washed 3 times with PBS. HRP (horseradish peroxidase)-labeled secondary antibody (purchased from Sigma, catalog number: A0170) was added, and incubated at 37° C. for 2 hours, and the plate was washed 5 times with PBS. TMB substrate was added at 50 μl/well, and incubated at room temperature for 30 minutes, then a stop solution (1.0 N HCl) was added at 50 μl/well.
(§2) In order to detect the species cross-binding activity of the chimeric antibodies, an ELISA plate was coated with commercial murine CD22 protein (ACROBiosystems, catalog number: SI2-M52Ha) and monkey CD22 protein (ACROBiosystems, catalog number: SI2-R52Ha), respectively, and the ELISA detection was performed according to the method in Example 5.1.

[2] = target: T2, CD22 on cynomolgus monkey peripheral blood B cells (cynomolgus monkey (Macaca fascicularis)); assay: FACS, cynomolgus PBMC, CD20+ B cells, antibody 1 nM
T2 construct: whole, on cells; also called cynomolgus monkey B cells
Text: (§3) The monkey peripheral blood mononuclear cells were extracted from fresh cynomolgus monkey peripheral blood (purchased from Shanghai Medicilon Inc.) according to the instructions of Ficoll-Paque Plus (purchased from GE Healthcare, catalog number: 171440-02). After the cell suspension was centrifuged, the cells were resuspended in PBS containing 1% BSA, and then the cells were counted. At the same time, the murine antibody Brilliant Violet 605 anti-human CD20 (catalog number: 302334, purchased from Biolegend) with monkey CD20 cross-binding activity and the chimeric antibodies to be tested (1 nM, 10 nM and 100 nM) were added and incubated at room temperature for 1 hour. After washing the cells three times, APC-labeled secondary antibody anti-human IgG Fc (catalog number: 409306, purchased from Biolegend) was added. After incubation at room temperature in the dark for 30 minutes, the cells were washed 5 times, gently resuspended with PBS containing 1% BSA, and detected and analyzed by FACS (FACS Canto™, purchased from BD Company). Wherein CD20 was used as a marker of B cells, and the CD20-positive B cell population was gated, the proportion of chimeric antibody positive cells was analyzed, and the proportion of chimeric antibody positive cell population to B cell population was calculated after treatments with the chimeric antibodies at the concentrations of 100 nM, 10 nM and 1 nM, respectively. The scatter plot of double-stained cells by Brilliant Violet 605-labeled CD20 and APC secondary antibody indirectly labeled chimeric antibody is shown in FIG. 10A-FIG. 10B (under the condition of 1 nM of chimeric antibody concentration).

[3] = target: T1, monkey CD22 protein (ACROBiosystems, …); assay: ELISA, coated monkey CD22 protein, antibody 0.00001 nM
Procedure: as §1, §2

[4] = target: T2, CD22 on cynomolgus monkey peripheral …; assay: FACS, cynomolgus PBMC, CD20+ B cells, antibody 100 nM
Text: as §3

[5] = target: T2, CD22 on cynomolgus monkey peripheral …; assay: FACS, cynomolgus PBMC, CD20+ B cells, antibody 10 nM
Text: as §3

[6] = target: T1, monkey CD22 protein (ACROBiosystems, …); assay: ELISA, coated monkey CD22 protein, antibody 0.001 nM
Procedure: as §1, §2

[7] = target: T1, monkey CD22 protein (ACROBiosystems, …); assay: ELISA, coated monkey CD22 protein, antibody 100 nM
Procedure: as §1, §2

[8] = target: T1, monkey CD22 protein (ACROBiosystems, …); assay: ELISA, coated monkey CD22 protein, antibody 0.0001 nM
Procedure: as §1, §2

[9] = target: T1, monkey CD22 protein (ACROBiosystems, …); assay: ELISA, coated monkey CD22 protein, antibody 0.1 nM
Procedure: as §1, §2

[10] = target: T1, monkey CD22 protein (ACROBiosystems, …); assay: ELISA, coated monkey CD22 protein, antibody 0.01 nM
Procedure: as §1, §2

OD450 [1]: 2.97 OD450
Proportion of chimeric antibody positive cells to B cells (%) [2]: 92%
OD450 [3]: 0.1 OD450
Proportion of chimeric antibody positive cells to B cells (%) [4]: 97%
Proportion of chimeric antibody positive cells to B cells (%) [5]: 95%
OD450 [6]: 1.02 OD450
OD450 [7]: 3.08 OD450
OD450 [8]: 0.23 OD450
OD450 [9]: 2.81 OD450
OD450 [10]: 2.62 OD450
B2: F1.250.16 (antibody, human IgG1, kappa, V domains shown)
VH: QVQLQQSGAEQVKPGASVKMSCKASGYTFTTYPIEWMKQNHGESLDWIGNIHPYNDDTEYNEKFKGKATLTVEKSSNTVFLELSRLTSDDSAVYYCVRGDYYNSRYWYFDVWGTGTTVTVSS
VL: DIVMTQSQKFMSTTVGDRVSITCKAGQNVRTAVAWYQQKPGQSPKLLIYSASTRYIGVPERFTGSGSGTDFTLTITNMQSEDLADYFCQQYSSFPLTFGTGTKLELKR
notes: human-murine chimeric IgG1 kappa; VL name legible

OD450 [1]: 1.89 OD450
Proportion of chimeric antibody positive cells to B cells (%) [2]: 39%
OD450 [3]: 0.06 OD450
Proportion of chimeric antibody positive cells to B cells (%) [4]: 95%
Proportion of chimeric antibody positive cells to B cells (%) [5]: 91%
OD450 [6]: 0.1 OD450
OD450 [7]: 2.27 OD450
OD450 [8]: 0.07 OD450
OD450 [9]: 1.07 OD450
OD450 [10]: 0.27 OD450
B5: F1.267.9 (antibody, human IgG1, kappa, V domains shown)
VH: EVQLQQSGPVLVKPGASVKMSCKASGYTFTDFYMNWAKQSHGKSLEWVGVINPYNGGINYNQKFKGKATLTVDKSSSTAYMEFNSLTSEDSAVYYCARRMEYHAMDYWGQGTSVTVSS
VL: DIVLTQSPASLAVSLGQRATISCRASESVDNYGFDFIHWYQQKPGQPPKLLIYRASNLESGIPARFSGSGSRPDFTLTINPVETDDVATYYCQQSIKDPWTFGGGTKLEIKR
notes: as for B2

OD450 [1]: 0.31 OD450
Proportion of chimeric antibody positive cells to B cells (%) [2]: 11%
OD450 [3]: 0.06 OD450
Proportion of chimeric antibody positive cells to B cells (%) [4]: 29%
Proportion of chimeric antibody positive cells to B cells (%) [5]: 16%
OD450 [6]: 0.06 OD450
OD450 [7]: 0.45 OD450
OD450 [8]: 0.06 OD450
OD450 [9]: 0.17 OD450
OD450 [10]: 0.09 OD450
B6: F1.231.15 (antibody, IgG1, V domains shown)
VH: QVQLQQPGAELVKPGASVKLSCKTSGYTFTIYWMQWVKQRPGRGLEWIGRIDPHSGDTHYNENFTTKVTLTVDETSNTAYMHLSGLTSEDSAVYYCARRDYSYYVLDYWGQGTSVTVSS
VL: DVVLTQTPLSLPVSLGDQASISCRSSQSLVHINGDTYLHWYLQKPGQSPKLLIYTVFNRFSGVPDRFSGSGSGTDFTLKISRVEAEDLGAYFCSQSTHVPYTFGGGTKLEIKR
notes: human-murine chimeric IgG1 kappa

More lines, now with the values behind:

B1: F1.224.1 (antibody, human IgG1, kappa, V domains shown)
VH: EVLLHQSGPELVKPGASVKISCKASGYTFTDFNMDWVRQRHGQSLEWIGDVNPNNGGTIYNQKFKGKATLTVDKSSSTVYMDLRSLTSDDTAVYYCVRLGTSDYGEAWFISWGQGTVVTVSA
VL: DIVLTQSPASLAVSLGQRATISCRASQSVSTPRYSFMHWYQQKPGQPPKLLIKYASNLESGFPARFTGSGSGTDFTLNIHPVEEEDTAAYYCQQSWAIPWTFGGGTKLEIKR
notes: as for B2
OD450 [1]: 2.48 OD450
Proportion of chimeric antibody positive cells to B cells (%) [2]: 83%
OD450 [3]: 0.08 OD450
Proportion of chimeric antibody positive cells to B cells (%) [4]: 97%
Proportion of chimeric antibody positive cells to B cells (%) [5]: 96%
OD450 [6]: 0.6 OD450
OD450 [7]: 2.87 OD450
OD450 [8]: 0.15 OD450
OD450 [9]: 2.3 OD450
OD450 [10]: 1.86 OD450

B3: F1.120.15 (antibody, human IgG1, kappa, V domains shown)
VH: QVQLQQSGPELVKPGASVKISCKASGNAFSNSWMNWVKQRPGKGLEWIGRVYSEDGDTQYNGKFRDKATLTADRSTSTAYMQLSSLTSEDSAVYFCARWLIYYGTYGAMDYWGQGTSVTVSS
VL: DIQMTQTTSSLSASLGDRVTISCRASQDINNYLNWYHQKPDGTVKLLIYFTSRPYSGVPSRFSGSGSGTDYSLTISNLEQEDIATYFCQQGNTLPWTFGGGTKLEIKR
notes: as for B6
OD450 [1]: 1.9 OD450
Proportion of chimeric antibody positive cells to B cells (%) [2]: 27%
OD450 [3]: 0.06 OD450
Proportion of chimeric antibody positive cells to B cells (%) [4]: 93%
Proportion of chimeric antibody positive cells to B cells (%) [5]: 86%
OD450 [6]: 0.16 OD450
OD450 [7]: 1.64 OD450
OD450 [8]: 0.07 OD450
OD450 [9]: 1.56 OD450
OD450 [10]: 0.65 OD450

B4: F1.7.6 (antibody, human IgG1, kappa, V domains shown)
VH: EIQLQQSGPELVKPGTSVKVSCKASGYDFTRYNMYWVKQSHGKSLEWIGYIDPYNGDTRYNQKFKGKATLTVDKSSSTAYMHLNSLTSEDSAVYYCEAIYYDMEGYALDYWGQGTSVTVSS
VL: DIVMSQSPSSLAVSVGEKVTMSCKSSQSLLYSNNQKNYLAWYQQKPGQSPKKLIYWASTRESGVPDRLTGSGSGTDFTLTISSVTAEDLAVYYCQQFYSYPWTFGGGTKLEIKR
notes: as for B2
OD450 [1]: 0.17 OD450
Proportion of chimeric antibody positive cells to B cells (%) [2]: 17%
OD450 [3]: 0.06 OD450
Proportion of chimeric antibody positive cells to B cells (%) [4]: 43%
Proportion of chimeric antibody positive cells to B cells (%) [5]: 28%
OD450 [6]: 0.06 OD450
OD450 [7]: 0.44 OD450
OD450 [8]: 0.06 OD450
OD450 [9]: 0.07 OD450
OD450 [10]: 0.06 OD450

B7: F1.105.11 (antibody, human IgG1, kappa, V domains shown)
VH: EVQLQQSGPVLVKPGASVKMSCKASGYTFSDYFMNWVKQSHGKSLEWIGIINSYSGGTSYNQKFKGKATLTVDKSSSTAYMELNSLTSEDSAVYYCARWMDYWGQGTSVTVSS
VL: DVQITQSPSYLAASPGETITINCRTSESISKHLAWYQEKPGKTNKLLIYSGSTLQSGIPSRFSGSGSGTDFTLTISSLEPEDFAMYYCQQHNEYPWTFGGGTKLEIKR
notes: as for B2
OD450 [1]: 1.4 OD450
Proportion of chimeric antibody positive cells to B cells (%) [2]: 46%
OD450 [3]: 0.06 OD450
Proportion of chimeric antibody positive cells to B cells (%) [4]: 69%
Proportion of chimeric antibody positive cells to B cells (%) [5]: 59%
OD450 [6]: 0.17 OD450
OD450 [7]: 1.29 OD450
OD450 [8]: 0.07 OD450
OD450 [9]: 1.31 OD450
OD450 [10]: 0.68 OD450
